Source: article PMC4902170 (JCI insight, 2016)
Read-outs that look alike come from different tables or passages of the source.

Assays:
Experiment in all cases: SPR
[1] = biological target: Human haptoglobin (from pooled human plasma, a mixture of 1-1, 2-1, and 2-2 phenotype) (human) (UniProt P00738)
[2] = biological target: T1, Recombinant human CD163 protein (human, UniProt Q86VB7-1 42-1050)
[3] = biological target: T1, Recombinant human CD163 protein; remark: listed apart in the source

T1 sequence (Q86VB7 42-1050): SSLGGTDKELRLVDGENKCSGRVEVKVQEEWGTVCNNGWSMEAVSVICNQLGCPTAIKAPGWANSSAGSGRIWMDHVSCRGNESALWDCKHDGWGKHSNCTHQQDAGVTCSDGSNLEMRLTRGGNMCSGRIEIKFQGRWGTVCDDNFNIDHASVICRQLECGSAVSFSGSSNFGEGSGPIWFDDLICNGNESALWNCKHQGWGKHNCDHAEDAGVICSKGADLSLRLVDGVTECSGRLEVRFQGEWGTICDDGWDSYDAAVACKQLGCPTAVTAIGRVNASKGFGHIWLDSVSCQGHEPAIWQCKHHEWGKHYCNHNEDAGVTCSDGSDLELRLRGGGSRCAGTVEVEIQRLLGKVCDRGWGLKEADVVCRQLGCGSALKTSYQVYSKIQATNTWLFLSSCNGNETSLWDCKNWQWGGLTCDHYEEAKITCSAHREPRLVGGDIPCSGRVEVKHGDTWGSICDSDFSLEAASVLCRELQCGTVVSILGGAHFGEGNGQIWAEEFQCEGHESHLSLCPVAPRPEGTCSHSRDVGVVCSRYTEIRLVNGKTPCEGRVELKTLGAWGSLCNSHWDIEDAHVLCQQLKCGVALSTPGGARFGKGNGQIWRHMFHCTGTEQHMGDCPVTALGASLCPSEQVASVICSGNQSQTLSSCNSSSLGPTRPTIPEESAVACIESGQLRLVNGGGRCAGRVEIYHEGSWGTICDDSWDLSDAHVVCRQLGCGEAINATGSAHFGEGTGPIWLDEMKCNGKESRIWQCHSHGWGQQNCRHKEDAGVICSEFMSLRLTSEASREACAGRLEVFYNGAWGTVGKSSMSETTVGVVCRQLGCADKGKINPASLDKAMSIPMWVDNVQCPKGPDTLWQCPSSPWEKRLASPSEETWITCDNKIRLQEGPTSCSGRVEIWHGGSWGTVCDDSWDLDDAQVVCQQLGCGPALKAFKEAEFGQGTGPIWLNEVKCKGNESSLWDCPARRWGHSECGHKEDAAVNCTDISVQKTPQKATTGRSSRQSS

Question: How did the Kd [1] turn out when “Recombinant HMGB1 (redox form not stated for the experiment) (from UniProt P09429 1-215) (natural protein)” was run?
Answer: The Kd was 64 nM.

B1: HMGB1 and haptoglobin complexes (1:1 molar ratio) (complex)
chain 1: GKGDPKKPRGKMSSYAFFVQTCREEHKKKHPDASVNFSEFSKKCSERWKTMSAKEKGKFEDMAKADKARYEREMKTYIPPKGETKKKFKDPNAPKRPPSAFFLFCSEYRPKIKGEHPGLSIGDVAKKLGEMWNNTAADDKQPYEKKAAKLKEKYEKDIAAYRAKGKPDAAKKGVVKAEKSKKKKEEEDDEEDEEDEEEEEEEEDEDEEEDDDDE
chain 2: VDSGNDVTDIADDGCPKPPEIAHGYVEHSVRYQCKNYYKLRTEGDGVYTLNDKKQWINKAVGDKLPECEADDGCPKPPEIAHGYVEHSVRYQCKNYYKLRTEGDGVYTLNNEKQWINKAVGDKLPECEAVCGKPKNPANPVQ
chain 3: ILGGHLDAKGSFPWQAKMVSHHNLTTGATLINEQWLLTTAKNLFLNHSENATAKDIAPTLTLYVGKKQLVEIEKVVLHPNYSQVDIGLIKLKQKVSVNERVMPICLPSKDYAEVGRVGYVSGWGRNANFKFTDHLKYVMLPVADQDQCIRHYEGSTVPEKKTPKSPVGVQPILNEHTFCAGMSKYQEDTCYGDAGSAFAVHDLEEDTWYATGILSFDKSCAVAEYGVYVKVTSIQDWVQKTIAEN
Question: B1 was tested. Which Kd [2] did it give?
Answer: The Kd was 130 nM.

B2: Recombinant HMGB1 (redox form not stated for the experiment) (natural protein, human, UniProt P09429 1-215, looked up)
chain: MGKGDPKKPRGKMSSYAFFVQTCREEHKKKHPDASVNFSEFSKKCSERWKTMSAKEKGKFEDMAKADKARYEREMKTYIPPKGETKKKFKDPNAPKRPPSAFFLFCSEYRPKIKGEHPGLSIGDVAKKLGEMWNNTAADDKQPYEKKAAKLKEKYEKDIAAYRAKGKPDAAKKGVVKAEKSKKKKEEEEDEEDEEDEEEEEDEEDEDEEEDDDDE
Question: With B2 as the molecule, how does the Kd [3] read?
Answer: The Kd was over 1000 nM.
